In US20250382346A1, “NEURONAL PROMOTERS AND USES THEREOF” (priority 2023, published 2025):

B1: AAV8R: AAV8 capsid with N385D, insertion of SEQ ID NO: 31 at position 588 and TS to IN mutation; Cap SEQ ID NO: 1 (protein)
chain: MAADGYLPDWLEDNLSEGIREWWALKPGAPKPKANQQKQDDGRGLVLPGYKYLGPFNGLDKGEPVNAADAAALEHDKAYDQQLQAGDNPYLRYNHADAEFQERLQEDTSFGGNLGRAVFQAKKRVLEPLGLVEEGAKTAPGKKRPVEPSPQRSPDSSTGIGKKGQQPARKRLNFGQTGDSESVPDPQPLGEPPAAPSGVGPNTMAAGGGAPMADNNEGADGVGSSSGNWHCDSTWLGDRVITTSTRTWALPTYNNHLYKQISNGTSGGATNDNTYFGYSTPWGYFDFNRFHCHFSPRDWQRLINNNWGFRPKRLSFKLFNIQVKEVTQNEGTKTIANNLTSTIQVFTDSEYQLPYVLGSAHQGCLPPFPADVFMIPQYGYLTLNDGSQAVGRSSFYCLEYFPSQMLRTGNNFQFTYTFEDVPFHSSYAHSQSLDRLMNPLIDQYLYYLSRTQTTGGTANTQTLGFSQGGPNTMANQAKNWLPGPCYRQQRVSTTTGQNNNSNFAWTAGTKYHLNGRNSLANPGIAMATHKDDEERFFPSNGILIFGKQNAARDNADYSDVMLTSEEEIKTTNPVATEEYGIVADNLQRGNLADQDYTKTARQAATADVNSQGALPGMVWQNRDVYLQGPIWAKIPHTDGNFHPSPLMGGFGLKHPPPQILIKNTPVPADPPTTFNQSKLNSFITQYSTGQVSVEIEWELQKENSKRWNPEIQYTSNYYKSINVDFAVNTEGVYSEPRPIGTRYLTRNL
B2: G88P7: 896-bp shortened GPR88 promoter; SEQ ID NO: 46 (nucleic acid, listed as Homo sapiens)
DNA: ATGCCAAGCGTGGAAAGGCTGTCTTTTCCCTGGATGATGTATAACTAAGCAGGAGAGAGCTTCGAGTGGGTTCACCACATCAGCCACCACTCCTGCTTCTGAGCACAGGGTGCTCTCCTCTTGAGCTCAGCTTCTGCTTTTGCAGCCAAGCATTCTTGCTGCTGCTGCCTGCCTGCCCACCCGCCTGGGCTTGCAGCCCGCCACTTTACTTTCTCCAGCCCTGATACCAGCTGAGAAGTCTCCCTGCAGCTGCTAGTTCCTGCCCAGGACCATGTGTGTGGATGCTGCTTGGGAGAAGCGGGCACTTGCTCCTGGCACTGATCCCAGCTGAGTTTCTCCTGTTGATTTCTGGACCACTGATGCTGTTGCTGAGGAGGTATTTCCCGGCATCCCTCCCCCTGAGACACCGGCTAAGGACCAGCCTAAACGCAAGGTAACCTTCACCTCTTTCCCATGGGATTTTCCCCAGCTGGGATATCTCTGCTTTCTCCTGGAACTAGGTCCTCCAGCTGGCAACATATCTCTCTCTCTCTCTCTCTCTCTCTCTCTCTCTCTCTCTCTGTGTGTGTGTGTGTGTGTTGGGGGAGAAGAGGAGACTGTTTTAGGTATTGCTCTGTCCTAGGGCTTCCCCGATACCTGCTGAATCCAATGCAAAGTGGCCTTTCCCCTGGCTCTGGAGACATTTCCGAGGCAGGCACCTGTCATCTGCCACCCCCGTCCTCCTCCTCGAGCTCCCTTTCTCCCCCTCCCCCAGCCCATTATTCTGCTTCAGCCTTTTGTGTCAGTGGCAGAGGGCTGAAGGGATGTCTTTGCCCTTCTGGCAGGCAGGACAGTGTCAGGATGGACCGCGCTGCCAGAAGCCGACGCTAGCGAGGGAGGTGTGAAGAGTTGGCCAG
B3: G88P3: 1395-bp shortened GPR88 promoter; SEQ ID NO: 45 (nucleic acid, listed as Homo sapiens)
DNA: TCTAGATGTACCACTGACATCTGCTTTAAATCTTTTGCCCATTTCATTTTTACCCTCTAACCATTTCATTACTAAAACACAAAACAAACTCCGGAAAGGAGTTTGTTGATGAGAAAACACTGAAAGTACGATTTAAATTGAGGAATGGAGATTTTCTGTGGATAATTGTCTATGTTCCACTTTACCAAAGAAAAATGAATTTCAAGTAGTGCATAAAGTAATTCTCGTTAAAAAATGTGGGAATAAAGAGATCAGTCCTGGGTACTGGGAATATATTTATCTCACAGAAAAATCTTGCCCACAAAATGCATCAGACTGAGATGAAATACTCTAGGGTATATTAAATTTTATTCTAATATTGAAGGGAGGGAAAAAAAGGACGGAAAGAAAAATGAAACAGGATGAAAAATAAGGTGATTGGGAGAGAGAAAAGACAGAGAAACTTGTTAACGACAGGACTTTCTGAGCAAGATATTTTTCTTCCTTTTACAAGTTGGAAGCTATTGAATAATTCATGCCAAGCGTGGAAAGGCTGTCTTTTCCCTGGATGATGTATAACTAAGCAGGAGAGAGCTTCGAGTGGGTTCACCACATCAGCCACCACTCCTGCTTCTGAGCACAGGGTGCTCTCCTCTTGAGCTCAGCTTCTGCTTTTGCAGCCAAGCATTCTTGCTGCTGCTGCCTGCCTGCCCACCCGCCTGGGCTTGCAGCCCGCCACTTTACTTTCTCCAGCCCTGATACCAGCTGAGAAGTCTCCCTGCAGCTGCTAGTTCCTGCCCAGGACCATGTGTGTGGATGCTGCTTGGGAGAAGCGGGCACTTGCTCCTGGCACTGATCCCAGCTGAGTTTCTCCTGTTGATTTCTGGACCACTGATGCTGTTGCTGAGGAGGTATTTCCCGGCATCCCTCCCCCTGAGACACCGGCTAAGGACCAGCCTAAACGCAAGGTAACCTTCACCTCTTTCCCATGGGATTTTCCCCAGCTGGGATATCTCTGCTTTCTCCTGGAACTAGGTCCTCCAGCTGGCAACATATCTCTCTCTCTCTCTCTCTCTCTCTCTCTCTCTCTCTGTGTGTGTGTGTGTGTGTTGGGGGAGAAGAGGAGACTGTTTTAGGTATTGCTCTGTCCTAGGGCTTCCCCGATACCTGCTGAATCCAATGCAAAGTGGCCTTTCCCCTGGCTCTGGAGACATTTCCGAGGCAGGCACCTGTCATTTGCCACCCCCGTCCTCCTCCTCGAGCTCCCTTTCTCCCCCTCCCCCAGCCCATTATTCTGCTTCAGCCTTTTGTGTCAGTGGCAGAGGGCTGAAGGGATGTCTTTGCCCTTCTGGCAGGCAGGACAGTGTCAGGATGGACCGCGCTGCCAGAAGCCGACGCTAGCGAGGGAGGTGTGAA

Legend:
Assay type in all cases: in vivo, mice
[1] = test system: substantia nigra (SN); experiment: Promoter screening: YFP-expressing neurons after injection of AAVs into the SNr, substantia nigra; conditions: numbers of YFP-expressing neurons per animal
Excerpt: (§1) To find promoters that offer high levels of expression in MSNs, gene expression databases were scanned to identify a list of eight genes that have highly enriched striatal expression compared to other parts of the basal ganglia (BG). Genes highly expressed in the striatum, but not other parts of the basal ganglia, were first selected as candidates.
(§2) Brain profiles of two epigenetic marks for enhancers and promoters, monomethylation of histone H3 lysine 4 (H3K4me1) and acetylation of histone H3 lysine 27 (H3K27ac) were checked and approximately 2 kilobase-long sequences around the transcriptional start site (TSS) that have high levels of H3K4me1 and/or H3K27ac were identified in mouse brain. Homologous sequences at equivalent positions of the human genome were then cloned onto an AAV backbone, and the activity of the homologous sequences in directing reporter expression was tested in mice after injections of AAVs into the SNr (FIG. 3A-C, TABLE 3).
(§3) G88P2 (2259 bp) was cloned with the following primers: 5′-[…] (SEQ ID NO.: 36) and 3-[…] (SEQ ID NO.: 37). To increase the payload of AAV genome, the G88P2 promoter was shorted using restriction enzymes, and two derivatives, G88P3 and G88P7, were made which were 1395-bp and 896-bp long, respectively (FIG. 3A-3C). Comparative efficiency in labeling MSNs for the two shortened promoters was observed. For mice that received viral injections into the SNr, viruses expressing EYFP driven by G88P3 and G88P7 promoters labeled 3.7±0.66×104 and 3.95±0.73×104 MSNs per mouse, respectively, compared to 1.61±0.16×104 labeled MSNs by hSyn promoter (FIG. 4B).
(§4) Region-selective promoter identification was based on the Allen Brain Atlas in situ hybridization (ISH) data (mouse.brain-map.org/). Genes highly expressed in the striatum but not in other parts of the basal ganglia were first selected as candidates. H3K4me 1 and H3K27ac are known epigenetic marks for active promoters and enhancers. Thus, we identified regions with high levels of these two chromatin modification marks in mouse brain as candidate regions based on the ENCODE annotation data on the UCSC Genome Browser (genome.ucsc.edu/). To further extend the promoters' potential application in primates, the sequences of interest were PCR-amplified from human genomic DNA. Based on the above strategies, GPR88 was selected as a candidate gene. […]
(§5) Images were acquired using a confocal microscope (Carl Zeiss, LSM880) and an Axiolmager. […] Every sixth section was analyzed, and numbers of EYFP+ cells were multiplied by six to acquire the approximate total number and mean number of cells per animal. Images were processed using ImageJ (NIH, USA), and final quantifications were independently performed manually by two blinded experimenters.

[2] = test system: striatonigral projection neurons (D1 MSNs); experiment: Retrograde labeling of striatal MSNs after AAV injection into the SNr, EYFP+ cell counting; conditions: for labeled neurons, reporter expression in MSNs by promoter (FIG. 4B), mean±SEM: promoter comparison
Procedure: To improve efficiency, multiple rounds of mutations of AAV capsids were performed on a series of different serotypes. Mutations were introduced at three sites in the AAV8 capsid protein to make AAV8R, including N385D, insertion of […] (SEQ ID NO: 31) at position 588, and TS711-7121N. Two additional mutations of V183E and N41 IS were incorporated into the AAV8R12 capsid protein (FIG. 1A). The labeling pattern of the AAV8R12 capsid and G88 promoter combination was determined.
was inserted at the N587-R588 position; two other point mutations of the AAV2 Cap protein were made to develop rAAV2-retro. Similar mutations were then placed at equivalent positions for four other AAV serotypes (FIGS. 1A-1C and 25, TABLE 1), AAV1/5/6/8 (FIG. 1A). […] When administered into the SNr, 4.86±0.22 times EYFP positive MSNs in mice infected by AAV8R-hSyn-EYFP were observed as compared to those infected by rAAV2-retro-hSyn-EYFP (FIG. 2A-2C).
Baseline infectivity of rAAV2-retro was approximately 0.2±0.03×10^4 cells per striatal hemisphere (using a hSyn promoter) (TABLE 2). […] Compared to the current standard retrograde AAV, rAAV2-retro, AAV8R12 labeled 7.72±0.78-times more MSNs after nigral delivery (FIG. 2B-2C, TABLE 1). […] The AAV8R12 was generated using the AAV8R plasmid as a template.
Mice were anesthetized with sodium pentobarbital (Nembutal; 80 mg/kg, i.p.), and then placed into a stereotaxic device (KOPF). Eye cream was applied on both corneas to avoid dehydration. The skull above the targeted areas was thinned with a dental drill and carefully removed. Injections were conducted with a 10 μL syringe connected to a 33-Gauge needle (Neuros; Hamilton), using a microsyringe pump (Legato 130, KD Scientific). A total volume of 200 nL virus was injected into the SNr at a speed of 20 nL/min. The coordinates for the SNr were 3.4 mm posterior, 1.3 mm lateral, 4.8 mm ventral to the bregma.
Images were acquired using a confocal microscope (Carl Zeiss, LSM880) and an Axiolmager. Z1 microscope with apotome (Carl Zeiss). Brain structures were identified microscopically and in digital photos using a mouse brain atlas. To analyze the number of EYFP+ cells in the striatum, slices from rostral to caudal striatum were used. Every sixth section was analyzed, and numbers of EYFP+ cells were multiplied by six to acquire the approximate total number and mean number of cells per animal. Images were processed using ImageJ (NIH, USA), and final quantifications were independently performed manually by two blinded experimenters.

[3] = test system: striatum (STR); experiment: Promoter screening: YFP-expressing neurons after injection of AAVs into the SNr, striatum; conditions: numbers of YFP-expressing neurons per animal
Excerpt: as §1, §2, §3, §4, §5

[4] = test system: MSNs in nucleus accumbens; experiment: Retrograde labeling of accumbal MSNs after delivery into ventral pallidum or lateral hypothalamus; conditions: stereotaxic delivery into ventral pallidum or lateral hypothalamus

Molecule | Activity Level SN [1] | labeled neurons, reporter expression in MSNs by promoter (FIG. 4B), mean±SEM ([2]; n=3 mice per group) | Activity Level STR [3] | labeling of MSNs in nucleus accumbens [4] | EYFP positive / labeled MSNs compared to rAAV2-retro ([2]; after nigral delivery, hSyn-EYFP) | labeled striatonigral projection neurons (FIG. 2C), mean±SEM ([2]; capsid comparison, injection into SNr of wild type mice, n=3 mice per group) | Mean (AAVs with capsid and promoter) ([2]; labeled cells after nigral injection in mice, b188 refers to it as cells per striatal hemisphere, SD and SEM in own columns)
G88P2: 2259-bp promoter from the gene GPR88; SEQ ID NO: 44 | + (<5k) | 36290±3705 | ++++ (>25k) |  |  |  | 
R9P1: promoter from gene RGS9, 2152 bp; SEQ ID NO: 47 | + (<5k) |  | +++ (10k-25k) |  |  |  | 
B1 |  |  |  | robust labeling of MSNs | 4.86±0.22 times | 10092±463.9 | 10092
B2 | + (<5k) | 39460±7281 | ++++ (>25k) |  |  |  | 
B3 | + (<5k) | 37026±6646 | ++++ (>25k) |  |  |  | 
